This is an account of results in patent US20140206607A1 (INDIANA UNIVERSITY RESEARCH AND TECHNOLOGY, published 2014).

Numbered stars: 1 amine (or outer) side, 2 acyl side, 3 side chain; on linkers, the order of the positions; unused ones are H or OH. Square brackets hold non-standard residues; d marks the D form. Side chains are listed from the residue outwards. Ends that are not written are not given here. * marks the point of attachment. γGlu = O=C(O)[C@H](CCC(=O)[*:2])N[*:1]; Desaminohistidyl = O=C(CCc1c[nH]cn1)*; Palmitoyl = CCCCCCCCCCCCCCCC(=O)*; Aib = CC(C)(N)C(=O)O

Common to all, as to test: cell-based or functional assay
Assay [1] concerns the target T1, GIP receptor (UniProt P48546 22-466).
T1 sequence (looked up): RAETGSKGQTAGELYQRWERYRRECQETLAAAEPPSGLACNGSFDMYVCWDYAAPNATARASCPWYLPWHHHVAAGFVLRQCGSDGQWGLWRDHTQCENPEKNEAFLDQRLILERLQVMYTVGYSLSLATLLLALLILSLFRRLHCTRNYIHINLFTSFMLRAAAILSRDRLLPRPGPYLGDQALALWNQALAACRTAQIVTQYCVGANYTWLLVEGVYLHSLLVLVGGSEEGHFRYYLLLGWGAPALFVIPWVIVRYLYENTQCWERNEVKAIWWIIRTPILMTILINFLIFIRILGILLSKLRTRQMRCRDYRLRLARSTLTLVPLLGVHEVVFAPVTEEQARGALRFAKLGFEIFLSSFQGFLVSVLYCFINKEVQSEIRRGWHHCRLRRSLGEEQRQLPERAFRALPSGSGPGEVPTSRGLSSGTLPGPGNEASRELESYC

In assay [2] the target is glucagon receptor (UniProt P47871 26-477, limits assumed).
Sequence of glucagon receptor (P47871 26-477 limits assumed): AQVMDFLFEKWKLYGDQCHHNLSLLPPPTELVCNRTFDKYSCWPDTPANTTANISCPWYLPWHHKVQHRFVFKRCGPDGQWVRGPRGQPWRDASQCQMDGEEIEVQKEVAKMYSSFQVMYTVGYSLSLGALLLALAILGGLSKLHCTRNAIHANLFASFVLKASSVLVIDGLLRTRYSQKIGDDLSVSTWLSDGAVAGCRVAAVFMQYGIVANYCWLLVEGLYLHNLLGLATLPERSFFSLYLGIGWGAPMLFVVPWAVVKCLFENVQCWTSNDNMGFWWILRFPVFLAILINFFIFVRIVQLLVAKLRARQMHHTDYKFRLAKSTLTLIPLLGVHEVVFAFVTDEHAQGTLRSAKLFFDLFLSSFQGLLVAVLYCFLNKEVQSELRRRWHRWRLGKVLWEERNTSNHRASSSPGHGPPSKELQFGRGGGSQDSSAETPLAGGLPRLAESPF
Assay [3] addresses GLP-1 receptor (UniProt P43220 24-463, limits assumed).

B1: peptide of SEQ ID NO: 25 (peptide)
peptide: H[Aib]QGTFTSDK([γGlu-γGlu-Palmitoyl])SKYLD[Aib]RAAQDFVQWLKDGRP-NH2
modifications: N-terminus assumed
SMILES: CCCCCCCCCCCCCCCC(=O)N[C@@H](CCC(=O)N[C@@H](CCC(=O)NCCCC[C@H](NC(=O)[C@H](CC(=O)O)NC(=O)[C@H](CO)NC(=O)[C@@H](NC(=O)[C@H](Cc1ccccc1)NC(=O)[C@@H](NC(=O)CNC(=O)[C@H](CCC(N)=O)NC(=O)C(C)(C)NC(=O)[C@@H](N)Cc1c[nH]cn1)[C@@H](C)O)[C@@H](C)O)C(=O)N[C@@H](CO)C(=O)N[C@@H](CCCCN)C(=O)N[C@@H](Cc1ccc(O)cc1)C(=O)N[C@@H](CC(C)C)C(=O)N[C@@H](CC(=O)O)C(=O)NC(C)(C)C(=O)N[C@@H](CCCNC(=N)N)C(=O)N[C@@H](C)C(=O)N[C@@H](C)C(=O)N[C@@H](CCC(N)=O)C(=O)N[C@@H](CC(=O)O)C(=O)N[C@@H](Cc1ccccc1)C(=O)N[C@H](C(=O)N[C@@H](CCC(N)=O)C(=O)N[C@@H](Cc1c[nH]c2ccccc12)C(=O)N[C@@H](CC(C)C)C(=O)N[C@@H](CCCCN)C(=O)N[C@@H](CC(=O)O)C(=O)NCC(=O)N[C@@H](CCCNC(=N)N)C(=O)N1CCC[C@H]1C(N)=O)C(C)C)C(=O)O)C(=O)O
B1: in assay [1], the “EC50 (nM) at GIP receptor” value is 2.36 nM. The “EC50 (nM) at glucagon receptor” value in assay [2] was found to be 0.035 nM. Besides, the “EC50 (nM) at GLP-1 receptor” value in assay [3] came out at 0.003 nM.

B2: peptide of SEQ ID NO: 23 (peptide)
peptide: H[Aib]QGTFTSDK([γGlu-γGlu-Palmitoyl])SKYLD[Aib]RAAQDFVQWLMKGRG-NH2
modifications: N-terminus assumed
SMILES: CCCCCCCCCCCCCCCC(=O)N[C@@H](CCC(=O)N[C@@H](CCC(=O)NCCCC[C@H](NC(=O)[C@H](CC(=O)O)NC(=O)[C@H](CO)NC(=O)[C@@H](NC(=O)[C@H](Cc1ccccc1)NC(=O)[C@@H](NC(=O)CNC(=O)[C@H](CCC(N)=O)NC(=O)C(C)(C)NC(=O)[C@@H](N)Cc1c[nH]cn1)[C@@H](C)O)[C@@H](C)O)C(=O)N[C@@H](CO)C(=O)N[C@@H](CCCCN)C(=O)N[C@@H](Cc1ccc(O)cc1)C(=O)N[C@@H](CC(C)C)C(=O)N[C@@H](CC(=O)O)C(=O)NC(C)(C)C(=O)N[C@@H](CCCNC(=N)N)C(=O)N[C@@H](C)C(=O)N[C@@H](C)C(=O)N[C@@H](CCC(N)=O)C(=O)N[C@@H](CC(=O)O)C(=O)N[C@@H](Cc1ccccc1)C(=O)N[C@H](C(=O)N[C@@H](CCC(N)=O)C(=O)N[C@@H](Cc1c[nH]c2ccccc12)C(=O)N[C@@H](CC(C)C)C(=O)N[C@@H](CCSC)C(=O)N[C@@H](CCCCN)C(=O)NCC(=O)N[C@@H](CCCNC(=N)N)C(=O)NCC(N)=O)C(C)C)C(=O)O)C(=O)O
With B2, the “EC50 (nM) at GIP receptor” value in assay [1] was determined as 1.58 nM. Further, in assay [2], the “EC50 (nM) at glucagon receptor” value worked out at 0.023 nM. Also, the “EC50 (nM) at GLP-1 receptor” value in assay [3] amounted to 0.004 nM.

B3: peptide of SEQ ID NO: 26 (peptide)
peptide: H[Aib]QGTFTSDK([γGlu-γGlu-Palmitoyl])SKYLD[Aib]RAAQDFVQWLK[Aib]GRG-NH2
modifications: N-terminus assumed
SMILES: CCCCCCCCCCCCCCCC(=O)N[C@@H](CCC(=O)N[C@@H](CCC(=O)NCCCC[C@H](NC(=O)[C@H](CC(=O)O)NC(=O)[C@H](CO)NC(=O)[C@@H](NC(=O)[C@H](Cc1ccccc1)NC(=O)[C@@H](NC(=O)CNC(=O)[C@H](CCC(N)=O)NC(=O)C(C)(C)NC(=O)[C@@H](N)Cc1c[nH]cn1)[C@@H](C)O)[C@@H](C)O)C(=O)N[C@@H](CO)C(=O)N[C@@H](CCCCN)C(=O)N[C@@H](Cc1ccc(O)cc1)C(=O)N[C@@H](CC(C)C)C(=O)N[C@@H](CC(=O)O)C(=O)NC(C)(C)C(=O)N[C@@H](CCCNC(=N)N)C(=O)N[C@@H](C)C(=O)N[C@@H](C)C(=O)N[C@@H](CCC(N)=O)C(=O)N[C@@H](CC(=O)O)C(=O)N[C@@H](Cc1ccccc1)C(=O)N[C@H](C(=O)N[C@@H](CCC(N)=O)C(=O)N[C@@H](Cc1c[nH]c2ccccc12)C(=O)N[C@@H](CC(C)C)C(=O)N[C@@H](CCCCN)C(=O)NC(C)(C)C(=O)NCC(=O)N[C@@H](CCCNC(=N)N)C(=O)NCC(N)=O)C(C)C)C(=O)O)C(=O)O
Take B3: the “EC50 (nM) at GIP receptor” value in assay [1] was found to be 3.29 nM. The “EC50 (nM) at glucagon receptor” value in assay [2] was 0.106 nM. In addition, in assay [3], the “EC50 (nM) at GLP-1 receptor” value was 0.004 nM.

B4: peptide of SEQ ID NO: 22 (peptide)
peptide: H[Aib]QGTFTSDK([γGlu-γGlu-Palmitoyl])SKYLD[Aib]RAAQDFVQWLMDGRG-NH2
modifications: N-terminus assumed
SMILES: CCCCCCCCCCCCCCCC(=O)N[C@@H](CCC(=O)N[C@@H](CCC(=O)NCCCC[C@H](NC(=O)[C@H](CC(=O)O)NC(=O)[C@H](CO)NC(=O)[C@@H](NC(=O)[C@H](Cc1ccccc1)NC(=O)[C@@H](NC(=O)CNC(=O)[C@H](CCC(N)=O)NC(=O)C(C)(C)NC(=O)[C@@H](N)Cc1c[nH]cn1)[C@@H](C)O)[C@@H](C)O)C(=O)N[C@@H](CO)C(=O)N[C@@H](CCCCN)C(=O)N[C@@H](Cc1ccc(O)cc1)C(=O)N[C@@H](CC(C)C)C(=O)N[C@@H](CC(=O)O)C(=O)NC(C)(C)C(=O)N[C@@H](CCCNC(=N)N)C(=O)N[C@@H](C)C(=O)N[C@@H](C)C(=O)N[C@@H](CCC(N)=O)C(=O)N[C@@H](CC(=O)O)C(=O)N[C@@H](Cc1ccccc1)C(=O)N[C@H](C(=O)N[C@@H](CCC(N)=O)C(=O)N[C@@H](Cc1c[nH]c2ccccc12)C(=O)N[C@@H](CC(C)C)C(=O)N[C@@H](CCSC)C(=O)N[C@@H](CC(=O)O)C(=O)NCC(=O)N[C@@H](CCCNC(=N)N)C(=O)NCC(N)=O)C(C)C)C(=O)O)C(=O)O
Regarding B4, the “EC50 (nM) at GIP receptor” value in assay [1] worked out at 2.37 nM. Besides, the “EC50 (nM) at glucagon receptor” value in assay [2] is 0.005 nM. Also, the “EC50 (nM) at GLP-1 receptor” value in assay [3] was determined as 0.002 nM.

B5: peptide of SEQ ID NO: 21 (peptide)
peptide: Ac-H[dS]QGTFTSDK([γGlu-Palmitoyl])SKYLDERAAQDFVQWLLDT-NH2
SMILES: CCCCCCCCCCCCCCCC(=O)N[C@@H](CCC(=O)NCCCC[C@H](NC(=O)[C@H](CC(=O)O)NC(=O)[C@H](CO)NC(=O)[C@@H](NC(=O)[C@H](Cc1ccccc1)NC(=O)[C@@H](NC(=O)CNC(=O)[C@H](CCC(N)=O)NC(=O)[C@@H](CO)NC(=O)[C@H](Cc1c[nH]cn1)NC(C)=O)[C@@H](C)O)[C@@H](C)O)C(=O)N[C@@H](CO)C(=O)N[C@@H](CCCCN)C(=O)N[C@@H](Cc1ccc(O)cc1)C(=O)N[C@@H](CC(C)C)C(=O)N[C@@H](CC(=O)O)C(=O)N[C@@H](CCC(=O)O)C(=O)N[C@@H](CCCNC(=N)N)C(=O)N[C@@H](C)C(=O)N[C@@H](C)C(=O)N[C@@H](CCC(N)=O)C(=O)N[C@@H](CC(=O)O)C(=O)N[C@@H](Cc1ccccc1)C(=O)N[C@H](C(=O)N[C@@H](CCC(N)=O)C(=O)N[C@@H](Cc1c[nH]c2ccccc12)C(=O)N[C@@H](CC(C)C)C(=O)N[C@@H](CC(C)C)C(=O)N[C@@H](CC(=O)O)C(=O)N[C@H](C(N)=O)[C@@H](C)O)C(C)C)C(=O)O
B5: in assay [1], the “EC50 (nM) at GIP receptor” value worked out at 4.5 nM. The “EC50 (nM) at glucagon receptor” value in assay [2] is 0.005 nM. In assay [3], the “EC50 (nM) at GLP-1 receptor” value came out at 0.009 nM.

B6: peptide of SEQ ID NO: 24 (peptide)
peptide: H[Aib]QGTFTSDK([γGlu-γGlu-Palmitoyl])SKYLD[Aib]RAAQDFVQWLKDGRG-NH2
modifications: N-terminus assumed
SMILES: CCCCCCCCCCCCCCCC(=O)N[C@@H](CCC(=O)N[C@@H](CCC(=O)NCCCC[C@H](NC(=O)[C@H](CC(=O)O)NC(=O)[C@H](CO)NC(=O)[C@@H](NC(=O)[C@H](Cc1ccccc1)NC(=O)[C@@H](NC(=O)CNC(=O)[C@H](CCC(N)=O)NC(=O)C(C)(C)NC(=O)[C@@H](N)Cc1c[nH]cn1)[C@@H](C)O)[C@@H](C)O)C(=O)N[C@@H](CO)C(=O)N[C@@H](CCCCN)C(=O)N[C@@H](Cc1ccc(O)cc1)C(=O)N[C@@H](CC(C)C)C(=O)N[C@@H](CC(=O)O)C(=O)NC(C)(C)C(=O)N[C@@H](CCCNC(=N)N)C(=O)N[C@@H](C)C(=O)N[C@@H](C)C(=O)N[C@@H](CCC(N)=O)C(=O)N[C@@H](CC(=O)O)C(=O)N[C@@H](Cc1ccccc1)C(=O)N[C@H](C(=O)N[C@@H](CCC(N)=O)C(=O)N[C@@H](Cc1c[nH]c2ccccc12)C(=O)N[C@@H](CC(C)C)C(=O)N[C@@H](CCCCN)C(=O)N[C@@H](CC(=O)O)C(=O)NCC(=O)N[C@@H](CCCNC(=N)N)C(=O)NCC(N)=O)C(C)C)C(=O)O)C(=O)O
In the case of B6, the “EC50 (nM) at GIP receptor” value in assay [1] worked out at 1.46 nM. The “EC50 (nM) at glucagon receptor” value in assay [2] came to 0.021 nM. Moreover, the “EC50 (nM) at GLP-1 receptor” value in assay [3] was determined as 0.004 nM.

B7: peptide of SEQ ID NO: 20 (peptide)
peptide: [Desaminohistidyl][dS]QGTFTSDK([γGlu-Palmitoyl])SKYLDERAAQDFVQWLLDT-NH2
SMILES: CCCCCCCCCCCCCCCC(=O)N[C@@H](CCC(=O)NCCCC[C@H](NC(=O)[C@H](CC(=O)O)NC(=O)[C@H](CO)NC(=O)[C@@H](NC(=O)[C@H](Cc1ccccc1)NC(=O)[C@@H](NC(=O)CNC(=O)[C@H](CCC(N)=O)NC(=O)[C@@H](CO)NC(=O)CCc1c[nH]cn1)[C@@H](C)O)[C@@H](C)O)C(=O)N[C@@H](CO)C(=O)N[C@@H](CCCCN)C(=O)N[C@@H](Cc1ccc(O)cc1)C(=O)N[C@@H](CC(C)C)C(=O)N[C@@H](CC(=O)O)C(=O)N[C@@H](CCC(=O)O)C(=O)N[C@@H](CCCNC(=N)N)C(=O)N[C@@H](C)C(=O)N[C@@H](C)C(=O)N[C@@H](CCC(N)=O)C(=O)N[C@@H](CC(=O)O)C(=O)N[C@@H](Cc1ccccc1)C(=O)N[C@H](C(=O)N[C@@H](CCC(N)=O)C(=O)N[C@@H](Cc1c[nH]c2ccccc12)C(=O)N[C@@H](CC(C)C)C(=O)N[C@@H](CC(C)C)C(=O)N[C@@H](CC(=O)O)C(=O)N[C@H](C(N)=O)[C@@H](C)O)C(C)C)C(=O)O
In the case of B7, the “EC50 (nM) at GIP receptor” value in assay [1] turned out to be 1.38 nM. In addition, the “EC50 (nM) at glucagon receptor” value in assay [2] came out at 0.006 nM. For the same molecule, the “EC50 (nM) at GLP-1 receptor” value in assay [3] is 0.004 nM.
